Measured values taken from US20090028788A1 (WASHINGTON UNIVERSITY IN ST LOUIS, published 2009).
[ ]: non-standard residue; d: D form. The star is where a group is joined. Cypate = CC1(C)C(/C=C/C=C/C=C/C=C2/N(CCC(=O)*)c3ccc4ccccc4c3C2(C)C)=[N+](CCC(=O)O)c2ccc3ccccc3c21

Assays:
[1] = molecular target: T1, purified human αvβ3 integrin protein (human, UniProt P06756 31-1048; P05106 27-788); assay: competition with 125I-echistatin on purified human αvβ3 integrin, filter plate
T1 construct: Bought heterodimer; also called ABI; purified αvβ3 integrin

[2] = molecular target: T1, purified human αvβ3 integrin protein; assay: competition with 125I-echistatin on purified αvβ3 integrin, filtration plate (Example 3)
[3] = molecular target: T1, purified human αvβ3 integrin protein; assay: competition with 125I-echistatin on purified human αvβ3 integrin, filter plate; remark: listed apart in the source
[4] = molecular target: T1, purified human αvβ3 integrin protein; assay: as above; remark: listed apart in the source

An IC50 [1] of 4.67 µM was found for “Cypate(Octreotate)1-(Arg-Gly-Asp-NH2)1 (peptide)” in this work.

B1: Cypate-Lys-Arg-Gly-Asp-DPhe-Asp-DPhe-EAhx-NH2 (peptide)
peptide: KRGDXDXX
HELM: PEPTIDE1{[CC1(C)C(/C=C/C=C/C=C/C=C2/N(CCC(=O)[*:2])c3ccc4ccccc4c3C2(C)C)=[N+](CCC(=O)O)c2ccc3ccccc3c21].K.R.G.D.[dF].D.[dF].[O=C(CCCCCN[*:1])[*:2]].[am]}$$$$V2.0
SMILES: CC1(C)C(/C=C/C=C/C=C/C=C2/N(CCC(=O)N[C@@H](CCCCN)C(=O)N[C@@H](CCCNC(=N)N)C(=O)NCC(=O)N[C@@H](CC(=O)O)C(=O)N[C@H](Cc3ccccc3)C(=O)N[C@@H](CC(=O)O)C(=O)N[C@H](Cc3ccccc3)C(=O)NCCCCCC(N)=O)c3ccc4ccccc4c3C2(C)C)=[N+](CCC(=O)O)c2ccc3ccccc3c21
An IC50 [1] of 0.328 µM was found for B1 in this work.

B2: cyclo[RGDfVK] (peptide)
peptide: RGDXVK
HELM: PEPTIDE1{R.G.D.[dF].V.K}$PEPTIDE1,PEPTIDE1,1:R1-6:R2$$$V2.0
SMILES: CC(C)[C@@H]1NC(=O)[C@@H](Cc2ccccc2)NC(=O)[C@H](CC(=O)O)NC(=O)CNC(=O)[C@H](CCCNC(=N)N)NC(=O)[C@H](CCCCN)NC1=O
An IC50 [2] of 1.93 µM was found for B2 in this work.

B3: Cypate-Gly-Arg-Gly-Asp-Ser-Pro-Lys-OH (peptide)
peptide: GRGDSPK
HELM: PEPTIDE1{[CC1(C)C(/C=C/C=C/C=C/C=C2/N(CCC(=O)[*:2])c3ccc4ccccc4c3C2(C)C)=[N+](CCC(=O)O)c2ccc3ccccc3c21].G.R.G.D.S.P.K}$$$$V2.0
SMILES: CC1(C)C(/C=C/C=C/C=C/C=C2/N(CCC(=O)NCC(=O)N[C@@H](CCCNC(=N)N)C(=O)NCC(=O)N[C@@H](CC(=O)O)C(=O)N[C@@H](CO)C(=O)N3CCC[C@H]3C(=O)N[C@@H](CCCCN)C(=O)O)c3ccc4ccccc4c3C2(C)C)=[N+](CCC(=O)O)c2ccc3ccccc3c21
notes: also called Cypate-GRGDSPK; Cypate-GRGDSPK-OH
An IC50 [3] of 0.328 µM and an IC50 [2] of 10.7 µM were found for B3 in this work.

B4: Cypate-Gly-Arg-Asp-Ser-Pro-Lys-OH (peptide)
peptide: GRDSPK
HELM: PEPTIDE1{[CC1(C)C(/C=C/C=C/C=C/C=C2/N(CCC(=O)[*:2])c3ccc4ccccc4c3C2(C)C)=[N+](CCC(=O)O)c2ccc3ccccc3c21].G.R.D.S.P.K}$$$$V2.0
SMILES: CC1(C)C(/C=C/C=C/C=C/C=C2/N(CCC(=O)NCC(=O)N[C@@H](CCCNC(=N)N)C(=O)N[C@@H](CC(=O)O)C(=O)N[C@@H](CO)C(=O)N3CCC[C@H]3C(=O)N[C@@H](CCCCN)C(=O)O)c3ccc4ccccc4c3C2(C)C)=[N+](CCC(=O)O)c2ccc3ccccc3c21
notes: also called Cypate-GRDSPK; Cypate-GRDSPK-OH
In the case of B4, the IC50 [3] is reported as 7.02 µM and the IC50 [2] is reported as > 100 µM.

B5: Cyclo(Lys(Cypate)-Arg-Gly-Asp-DPhe-Val) (peptide)
peptide: cyclo(K(Cypate)RGD[dF]V)
SMILES: CC(C)[C@@H]1NC(=O)[C@@H](Cc2ccccc2)NC(=O)[C@H](CC(=O)O)NC(=O)CNC(=O)[C@H](CCCNC(=N)N)NC(=O)[C@H](CCCCNC(=O)CCN2/C(=C/C=C/C=C/C=C/C3=[N+](CCC(=O)O)c4ccc5ccccc5c4C3(C)C)C(C)(C)c3c2ccc2ccccc32)NC1=O
notes: also called Cyclo(K^(Cypate)RGDfV); cyclo-[K^(Cypate)RGDfV]
An IC50 [4] of 79.5 µM, an IC50 [3] of 79.5 µM and an IC50 [2] of 79.1 µM were found for B5 in this work.

B6: Cypate-cyclo(CRGDDC)-NH2 (peptide)
peptide: CRGDDC
HELM: PEPTIDE1{[CC1(C)C(/C=C/C=C/C=C/C=C2/N(CCC(=O)[*:2])c3ccc4ccccc4c3C2(C)C)=[N+](CCC(=O)O)c2ccc3ccccc3c21].C.R.G.D.D.C.[am]}$PEPTIDE1,PEPTIDE1,2:R3-7:R3$$$V2.0
SMILES: CC1(C)C(/C=C/C=C/C=C/C=C2/N(CCC(=O)N[C@H]3CSSC[C@@H](C(N)=O)NC(=O)[C@H](CC(=O)O)NC(=O)[C@H](CC(=O)O)NC(=O)CNC(=O)[C@H](CCCNC(=N)N)NC3=O)c3ccc4ccccc4c3C2(C)C)=[N+](CCC(=O)O)c2ccc3ccccc3c21
An IC50 [4] of 1.89 µM was found for B6 in this work.

B7: Cypate-cyclo(CRGDLC)-NH2 (peptide)
peptide: CRGDLC
HELM: PEPTIDE1{[CC1(C)C(/C=C/C=C/C=C/C=C2/N(CCC(=O)[*:2])c3ccc4ccccc4c3C2(C)C)=[N+](CCC(=O)O)c2ccc3ccccc3c21].C.R.G.D.L.C.[am]}$PEPTIDE1,PEPTIDE1,2:R3-7:R3$$$V2.0
SMILES: CC(C)C[C@@H]1NC(=O)[C@H](CC(=O)O)NC(=O)CNC(=O)[C@H](CCCNC(=N)N)NC(=O)[C@@H](NC(=O)CCN2/C(=C/C=C/C=C/C=C/C3=[N+](CCC(=O)O)c4ccc5ccccc5c4C3(C)C)C(C)(C)c3c2ccc2ccccc32)CSSC[C@@H](C(N)=O)NC1=O
An IC50 [4] of 9.64 µM was found for B7 in this work.

B8: Cypate-cyclo(CRGDGRC)-NH2 (peptide)
peptide: CRGDGRC
HELM: PEPTIDE1{[CC1(C)C(/C=C/C=C/C=C/C=C2/N(CCC(=O)[*:2])c3ccc4ccccc4c3C2(C)C)=[N+](CCC(=O)O)c2ccc3ccccc3c21].C.R.G.D.G.R.C.[am]}$PEPTIDE1,PEPTIDE1,2:R3-8:R3$$$V2.0
SMILES: CC1(C)C(/C=C/C=C/C=C/C=C2/N(CCC(=O)N[C@H]3CSSC[C@@H](C(N)=O)NC(=O)[C@H](CCCNC(=N)N)NC(=O)CNC(=O)[C@H](CC(=O)O)NC(=O)CNC(=O)[C@H](CCCNC(=N)N)NC3=O)c3ccc4ccccc4c3C2(C)C)=[N+](CCC(=O)O)c2ccc3ccccc3c21
An IC50 [4] of 1.09 µM was found for B8 in this work.
